In patent publication US20060099646A1, “Bret assay” (priority 2002, published 2006):

Columns and labels:
[1] = molecular target: T1, NK-1/Rluc receptor (Homo sapiens, UniProt P25103); assay: NK-1 receptor internalization assay; type: cell-based; conditions: COS7 cells, co-expressed with NK-1/Rluc; 125I-SP 10 min at 37 C; versus WT β-arrestin; FIG. 1
T1 construct: expressed in transfected cells; host or cells: COS7
Experimental: COS7 cells in 75 cm^2 flask (3×10^6 cells/flask) were used for transfection. NK-1/Rluc receptor (2 μg cDNA/flask) was coexpressed together with 6 μg GFP/β-arrestin 2, 6 μg GFP^2/β-arrestin R169E, 6 μg GFP^2/β-arrestin Lys 373 stop or 6 μg GFP^2/β-arrestin R393E, R395E. At the end of transfection period (3-5 hours), cells were washed twice with PBS, trypsinased and plated at a density of 2.5×10^5 cells per well in 12-well plates. After 48 hours, cells were washed once with assay medium (HEPES-modified DMEM with 0.1% BSA, pH 7.4) and incubated in assay medium for at least 1 hour before being incubated with ^125I-labeled SP (30000 cpm/well) in 0.5 ml assay medium 10 min at 37 C. Cells were then transferred onto ice and washed twice with ice-cold PBS. Subsequently, the extracellular receptor-associated ligand was removed by washing once with 1 ml of acid solution (50 mM acetic acid and 150 mM NaCl, pH 2.8) for 12 min. The acid wash was collected to determine the surface-bound radioactivity, and the internalized radioactivity was determined after solubilizing the cells in 0.2 M NaOH and 1% SDS (NaOH/SDS) solution. Nonspecific binding for each time point was determined under the same conditions in the presence of 1 μM unlabeled agonist (SP). After subtraction of nonspecific binding, the internalized radioactivity was expressed as a percentage of the total binding.

[2] = molecular target: T2, β2AR/Rluc receptor (Homo sapiens, UniProt P07550); assay: β2AR internalization assay; type: cell-based; conditions: COS-7 cells, co-expressed with β2AR/Rluc; isopterenol 10 min at 37° C; versus WT β-arrestin; FIG. 1
T2 construct: expressed in transfected cells; host or cells: COS-7
Experimental: COS-7 cells in 75 cm^2 flask (3×10^6 cells/flask) were used for trasfection. β2AR/Rluc receptor (1.3 μg cDNA/flask) was coexpressed together with 6.5 μg GFP^2/β-arrestin 2, 6.5 μg GFP^2/β-arrestin R169E, 6.5 μg GFP^2/β-arrestin Lys 373 stop or 6.5 μg GFP^2/β-arrestin R393E, R395E. Receptor internalization assay was based on protocol described by Barak and Caron J Recept Signal Transduct Res 1995 January-March;15(14):677-90. At the end of transfection period (3-5 hours), cells were washed twice with PBS, trypsinesed and plated at a density of 2.5×10^5 cells per well in 12-well plates. After 48 hours, cells were washed once with assay medium (HEPES-modified DMEM with 0.1% BSA, pH 7.4) and serum-starved in the same medium for additional 2-3 hours before being stimulated with […] isopterenol for 10 min at 37° C. Stimulation was stopped by washing the cells with ice-cold PBS. Cells were then subjected to [^125I]-pindolol binding at 4° C. for 3 h and the fraction of internalized receptors determined relative to unstimulated cells. Non-specific binding was determined under the same conditions in the presence of 1 μM pindolol.

[3] = molecular target: T3, NK1 receptor (Homo sapiens, UniProt P25103); assay: BRET assay, NK1-Rluc / β-arrestin-2-GFP; type: cell-based; conditions: NK1 receptor (class B) coexpressed with β-arrestin mutant; versus WT; FIG. 2
T3 construct: expressed in transfected cells
Experimental: (§1) Cell Preparation for BRET Assay: • 1. 48 hrs after transfection with 2 μg receptor-Rluc DNA (e.g. NK1-Rluc or β2AR-Rluc) and 5 μg β-arrestin-2 DNA (e.g. the R393E; R395E mutant) (for assays with GRK also 2 μg GRK DNA, e.g. GRK-5) media was removed and cell washed 1× with PBS • 2. 1 ml 1× trypsin (T75 flask) was added and incubated 3-5 min at 37 C • 3. 10 mL complete media was added. • 4. Cells were transferred to tube and spun down (5 min, 800 rpm) • 5. Media was removed, and cells resuspended in 10 ml PBS and counted, spun down (5 min, 800 rpm) • 6. Resuspended in D-PBS with 1000 mg/l L-Glucose (#14287) to a density of 2×10^6 cells/ml • 7. Cells were left at room temperature for at least 30 min, to stabilize readings.
(§2) Assay: • 1. Dilution of DeepBlueC to 100 μM in 40% ethanol in D-PBS with 1000 mg/l L-Glucose (#14287) (light sensitive!!). The DeepBlueC™ stock solution comprises 1 mM DeepBlueC™ in 100% v/v EtOH.
(§3) The dilution of DeepBlueC in 40% ethanol/buffer is essential for the stability of DeepBlueC. If DeepBlueC is diluted in buffer alone, it will precipitate within 10 to 20 minutes, making it virtually impossible to use the assay in HTS mode. […] 100 μl of resuspended cells were transferred into wells in 96-well white optiplate plate • 3. […] 5 μl of diluted DeepBlueC/well was added, and the plate was read.
(§4) Antagonist: • 1. […] 6 μl of diluted DeepBlueC/well was added, and the plate read.

[4] = molecular target: T4, β2AR receptor (Homo sapiens, UniProt P07550); assay: BRET assay, β2AR-Rluc / β-arrestin-2-GFP; type: cell-based; conditions: β2AR receptor (class A) coexpressed with β-arrestin mutant; versus WT; FIG. 2
T4 construct: expressed in transfected cells
Experimental: as §1, §2, §3, §4

[5] = Precipitation / stability of diluted DeepBlueC substrate solution; type: physicochemical
Experimental: One of the problems associated with setting up an assay, such as, e.g. a high through-put screening (HTS) assay, is to prepare a suitable solution of the substrate, DeepBlueC™. If the stock solution of DeepBlueC™ is diluted to the relevant concentration for use in a BRET assay in D-PBS as recommended, it will form a precipitate within 10 to 20 minutes, making it virtually impossible to use for a HTS assay.
as §2
(§5) The dilution of DeepBlueC in 40% ethanol/buffer is essential for the stability of DeepBlueC. If DeepBlueC is diluted in buffer alone, it will precipitate within 10 to 20 minutes, making it virtually impossible to use the assay in HTS mode. […] 100 μl of resuspended cells were transferred into wells in 96-well white optiplate plate • 3. 12 μl agonist was added. • 4. 5 μl of diluted DeepBlueC/well was added, and the plate was read.

[6] = system: renilla luciferase; assay: Light emission from renilla luciferase after addition of DeepBlueC solution (FIG. 3)
Experimental: as §5

T1 sequence (P25103 whole entry): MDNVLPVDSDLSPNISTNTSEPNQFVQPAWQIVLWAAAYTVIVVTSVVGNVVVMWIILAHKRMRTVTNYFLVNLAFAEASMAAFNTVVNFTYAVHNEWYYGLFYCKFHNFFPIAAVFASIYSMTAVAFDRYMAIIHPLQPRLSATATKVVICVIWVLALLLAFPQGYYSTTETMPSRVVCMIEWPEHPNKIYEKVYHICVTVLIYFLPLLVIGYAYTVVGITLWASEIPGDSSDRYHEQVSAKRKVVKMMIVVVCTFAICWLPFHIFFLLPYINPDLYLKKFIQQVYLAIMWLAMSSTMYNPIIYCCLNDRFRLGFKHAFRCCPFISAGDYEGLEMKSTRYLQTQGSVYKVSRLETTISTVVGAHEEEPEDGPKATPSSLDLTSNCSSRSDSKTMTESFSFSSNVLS
T3 sequence (P25103 whole entry, species assumed): as the sequence (P25103 whole entry) above

| internalization of the NK1-R [1] | internalization of the β2AR [2] | specific BRET ratio (BRET signal) [3] | specific BRET ratio (BRET signal) [4] | Molecule | stability of diluted solution ([5]; diluted in 40% ethanol in D-PBS with 1000 mg/l L-Glucose) | time to formation of precipitate ([5]; stock solution diluted in D-PBS / buffer alone, no ethanol) [min] | stability of light emission signal ([6]; DeepBlueC dissolved in buffer with 0% ethanol) | stability of light emission signal ([6]; DeepBlueC dissolved in buffer with 6% ethanol) | stability of light emission signal ([6]; DeepBlueC dissolved in buffer with 40% ethanol) |
| --- | --- | --- | --- | --- | --- | --- | --- | --- | --- |
| inhibiting the internalization | inhibiting the internalization | the effect is less pronounced | increasing the BRET signal significantly | human β-arrestin-2 R393E; R395E mutant: human β-arrestin-2 wherein amino acids 393 and 395 have been changed from arginine to glutamic acid; used as GFP fusion | – | – | – | – | – |
| inhibiting the internalization | inhibiting the internalization | the effect is less pronounced | increasing the BRET signal significantly | human β-arrestin-2 373 stop mutant: truncated human β-arrestin-2 lacking clathrin and/or AP2 binding sites; used as GFP fusion | – | – | – | – | – |
| – | – | – | – | O=c1c(Cc2ccccc2)nc2c(Cc3ccccc3)[nH]c(-c3ccccc3)cn1-2 [DeepBlueC] | stable for hours | 10 to 20 | rapidly decreases | rapidly decreases | stable for the duration of the experiment |
